Results: IntAct's records for PubMed 23624404

B1: DNA repair protein RAD51 (Saccharomyces cerevisiae), P25454 (parent)
chain: MSQVQEQHISESQLQYGNGSLMSTVPADLSQSVVDGNGNGSSEDIEATNGSGDGGGLQEQAEAQGEMEDEAYDEAALGSFVPIEKLQVNGITMADVKKLRESGLHTAEAVAYAPRKDLLEIKGISEAKADKLLNEAARLVPMGFVTAADFHMRRSELICLTTGSKNLDTLLGGGVETGSITELFGEFRTGKSQLCHTLAVTCQIPLDIGGGEGKCLYIDTEGTFRPVRLVSIAQRFGLDPDDALNNVAYARAYNADHQLRLLDAAAQMMSESRFSLIVVDSVMALYRTDFSGRGELSARQMHLAKFMRALQRLADQFGVAVVVTNQVVAQVDGGMAFNPDPKKPIGGNIMAHSSTTRLGFKKGKGCQRLCKVVDSPCLPEAECVFAIYEDGVGDPREEDE

Variants of: B1
Details: with smt3_yeast SMT3, Q12306
smt3_yeast SMT3, Q12306, sequence (Q12306 whole entry): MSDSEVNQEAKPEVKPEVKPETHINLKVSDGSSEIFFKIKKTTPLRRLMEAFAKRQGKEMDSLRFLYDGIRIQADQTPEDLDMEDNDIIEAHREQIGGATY

effect of a mutation on the interaction	Variant
disrupting interaction strength	V321A;V322A

Variants of: B1
Details: with rad52_yeast RAD52, P06778

effect of a mutation on the interaction	Variant
decreasing interaction strength	V321A;V322A
